Results taken from patent CN117924490A (CHINA RESOURCES BIOMEDICAL CO LTD, dated 2024).

Columns and labels:
[1] = target: T1, IL-4Rα on HEK293-hSTAT6/5×STAT6-Luc cells (UniProt P24394 26-825, limits assumed); assay: cell-based or functional assay
T1 sequence (looked up): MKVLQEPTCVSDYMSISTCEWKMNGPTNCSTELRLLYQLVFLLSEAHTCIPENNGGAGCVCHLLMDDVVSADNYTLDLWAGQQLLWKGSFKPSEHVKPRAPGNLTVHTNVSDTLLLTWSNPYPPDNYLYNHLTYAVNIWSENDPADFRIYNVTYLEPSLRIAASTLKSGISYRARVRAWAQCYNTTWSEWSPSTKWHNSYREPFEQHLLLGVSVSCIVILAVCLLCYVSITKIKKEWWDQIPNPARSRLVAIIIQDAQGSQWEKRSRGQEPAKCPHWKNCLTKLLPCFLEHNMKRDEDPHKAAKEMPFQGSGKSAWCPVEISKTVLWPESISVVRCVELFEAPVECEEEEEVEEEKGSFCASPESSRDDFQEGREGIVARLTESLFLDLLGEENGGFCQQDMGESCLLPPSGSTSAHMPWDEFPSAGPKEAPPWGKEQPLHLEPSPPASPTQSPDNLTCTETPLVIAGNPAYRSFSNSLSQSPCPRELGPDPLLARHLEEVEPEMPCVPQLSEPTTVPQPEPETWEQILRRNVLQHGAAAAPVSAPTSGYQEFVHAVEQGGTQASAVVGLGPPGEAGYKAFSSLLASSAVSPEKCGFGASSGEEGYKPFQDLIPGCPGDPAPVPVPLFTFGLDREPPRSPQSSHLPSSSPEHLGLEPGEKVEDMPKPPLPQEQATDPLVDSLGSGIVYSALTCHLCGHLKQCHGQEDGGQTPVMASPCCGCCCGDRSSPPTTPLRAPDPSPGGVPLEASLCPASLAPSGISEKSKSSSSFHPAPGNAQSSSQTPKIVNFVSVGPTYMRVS

[2] = target: T2, 人IL-4R表达于HEK293-IL-4R细胞表面 (human IL-4R on the surface of HEK293-IL-4R cells) (human, UniProt P24394 26-825); assay: FACS on HEK293-IL-4R cells, FITC anti-human IgG, MFI
T2 construct: whole, on cells; The construct in the HEK293-IL-4R line is not described; also called 人IL-4R过表达细胞; 细胞表面IL-4R
T2 sequence (looked up): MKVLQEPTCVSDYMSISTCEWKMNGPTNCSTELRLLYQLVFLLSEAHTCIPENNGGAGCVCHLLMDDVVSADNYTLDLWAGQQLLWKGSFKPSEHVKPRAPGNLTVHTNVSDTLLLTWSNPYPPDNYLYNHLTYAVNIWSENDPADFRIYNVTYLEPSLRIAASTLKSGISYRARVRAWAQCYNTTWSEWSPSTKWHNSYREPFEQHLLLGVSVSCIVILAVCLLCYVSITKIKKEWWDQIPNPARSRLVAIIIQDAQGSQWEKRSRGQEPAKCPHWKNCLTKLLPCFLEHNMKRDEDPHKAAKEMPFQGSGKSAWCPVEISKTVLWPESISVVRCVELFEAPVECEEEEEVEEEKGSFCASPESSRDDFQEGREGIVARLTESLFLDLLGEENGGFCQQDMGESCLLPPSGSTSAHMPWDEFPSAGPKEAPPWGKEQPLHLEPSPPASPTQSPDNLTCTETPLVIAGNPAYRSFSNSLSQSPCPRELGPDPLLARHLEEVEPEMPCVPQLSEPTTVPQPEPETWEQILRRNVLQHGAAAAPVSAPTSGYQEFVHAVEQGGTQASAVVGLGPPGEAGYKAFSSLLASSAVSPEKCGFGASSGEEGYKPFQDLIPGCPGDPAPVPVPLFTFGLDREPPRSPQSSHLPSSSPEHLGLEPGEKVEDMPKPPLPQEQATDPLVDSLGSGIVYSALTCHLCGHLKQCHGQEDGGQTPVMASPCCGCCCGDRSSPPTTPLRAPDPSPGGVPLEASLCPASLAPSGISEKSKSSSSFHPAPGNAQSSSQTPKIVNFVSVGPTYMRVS

[3] = target: T3, IL-4R蛋白 (Acrobiosystems, IL-H5221) (human, UniProt P24394 26-232); assay: BLI (Octet RH96), antibody captured on AHC2 probes, IL-4R protein in solution, 1:1 model
T3 construct: The two catalogue numbers differ by one letter, likely a misprint; also called Human IL4R Protein, His Tag (Acro, ILR-H5221); 人IL 4R
T3 sequence (looked up): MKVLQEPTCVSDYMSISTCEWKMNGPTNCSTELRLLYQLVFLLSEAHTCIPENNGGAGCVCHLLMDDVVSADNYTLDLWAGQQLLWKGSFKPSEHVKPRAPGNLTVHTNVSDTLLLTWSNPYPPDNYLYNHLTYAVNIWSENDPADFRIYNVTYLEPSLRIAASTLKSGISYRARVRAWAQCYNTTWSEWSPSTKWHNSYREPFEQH

[4] = target: T2, 人IL-4R表达于HEK293-IL-4R细胞表面 (human IL-4R …); assay: FACS competition: blocking of biotinylated human IL-4 binding to HEK293-IL-4R cells, PE streptavidin, MFI

抑制IL-4诱导的HEK293-hSTAT6/5×STAT6-Luc细胞中STAT6磷酸化活性 (luciferase reporter, IL4 protein 40ng/mL) IC50 [1]: 92.7 nM
抑制IL-13诱导的HEK293-hSTAT6/5×STAT6-Luc细胞中STAT6磷酸化活性 (luciferase reporter, IL-13 protein 10ng/mL) IC50 [1]: 5.6 nM
EC50 [2]: 0.334 µg/mL
Kd [3]: 0.341 nM
IC50 [4]: 0.075 µg/mL
B1: 65G5 (antibody, human IgG1, kappa, V domains shown)
VH: EVKLVESGGALVQPGGSLKLSCAASGFTFNSYGMSWVRQTPDKRLELVAVISSDGAYTYYPDSMKGRFTISRDNAKSSLYLQMSSLQSEDTAMYYCTLITTWYFDVWGAGTTVTVSS
VL: DIQMTQSSSSFSVSLGDRVTITCKASEELYNRLAWYQQKPGNAPRLFISGATTLETGVPSRFSGSGSGKDYTLSITSLQTEDVATYYCQQYWSSPYTFGGGTKLELKR
notes: also called 抗人IL-4R抗体; 抗IL-4R抗体
